Laboratory results from patent publication US20240010750A1 (Bayer, published 2024).
Read-outs that look alike come from different tables or passages of the source.

T1: human alpha2-Antiplasmin (human, UniProt P08697 40-491)
T1 construct: Bought (antibodies online, ABIN2544306); also called human A2AP; a2AP
T1 sequence: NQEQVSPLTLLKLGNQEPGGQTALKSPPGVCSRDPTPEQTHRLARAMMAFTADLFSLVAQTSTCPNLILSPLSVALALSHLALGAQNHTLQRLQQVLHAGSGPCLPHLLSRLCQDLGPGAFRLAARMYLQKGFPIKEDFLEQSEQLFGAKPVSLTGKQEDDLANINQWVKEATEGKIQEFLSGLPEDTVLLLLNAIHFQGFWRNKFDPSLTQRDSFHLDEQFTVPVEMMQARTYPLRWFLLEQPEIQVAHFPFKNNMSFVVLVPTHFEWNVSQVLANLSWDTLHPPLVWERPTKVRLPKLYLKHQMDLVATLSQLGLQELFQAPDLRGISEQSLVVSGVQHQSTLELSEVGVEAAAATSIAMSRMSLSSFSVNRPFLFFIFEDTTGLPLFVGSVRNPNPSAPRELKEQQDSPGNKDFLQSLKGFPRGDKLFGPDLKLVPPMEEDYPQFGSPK


Tests used:
human alpha2-Antiplasmin [1] = biological target: T1, human alpha2-Antiplasmin; assay: ELISA, coated antigen, 2nd exp.
Description: (§1) A standard ELISA format was used for analyzing the binding affinity of Fabs of this invention to human and rabbit alpha-2-Antiplasmin, respectively. Antigens were coated to black 384 well Maxisorp microtiter plates (Nunc; catalogue number 460518), diluted to a concentration of 1 μg/ml in 1× Coating Buffer (Candor Bioscience; catalogue number 121125). Plates were incubated overnight at 4° C. After overnight incubation, plates were washed 2× with 50 μl/well using PBS+0.05% Tween 20. Following this, 50 μl/well of blocking buffer (Smart Block; Candor Bioscience; catalogue number 113500) was added and the plates were incubated for 1 hour at room temperature. Afterwards, plates were washed for 3× using […] PBS+0.05% Tween 20 buffer. Fabs of this invention were added at different concentrations in a final volume of 30 μl/well. Plates were incubated for 1 hour at room temperature. Following this incubation step, plates were washed for 3× using 50 μl/well of a PBS+0.05% Tween 20 buffer. For the detection of bound Fabs and full-length antibodies, the anti-Human Lambda Light Chains (Bound and Free)—Peroxidase antibody (Sigma; catalogue number A5175) was diluted by the factor of 1:10.000 in 10% Blocking Buffer. 30 μl/well of this diluted detection antibody was added and plates are incubated for 1 hour at room temperature. Following this incubation step, plates were washed for 3× using 50 μl/well of a PBS+0.05% Tween 20 buffer. As substrate, a mixture of 30 μl/well of 1:1000 diluted Amplex red (Invitrogen; catalogue number 12222; stock solution 10 mM in DMSO) and 1:10.000 of Hydrogen peroxide (Merck; catalogue number 107209; 30% stock solution) was added and the plates incubated for minutes in the dark.
(§2) For measurement, the Infinite f500 reader (Tecan) was used. Measurement mode: Fluorescence; Top reading; Ex 535 nm; Em 590 nm.
(§3) According to the methods described in Example 3 and Example 4, antibodies TPP-14323, TPP-14318, TPP-14314, TPP-14313, TPP-14308, TPP-14305, TPP-14303, TPP-14298, and TPP-14293 were tested for their ability to bind to and to block the activity of human alpha2-Antiplasmin in a dose-dependent manner. For each antibody, one dose response curve from two to three independent experiments performed in quadruplicate is shown as example in FIG. 7.1 to FIG. 7.18. (see Table 3.3)

human alpha2-Antiplasmin [2] = biological target: T1, human alpha2-Antiplasmin; assay: cell-based or functional assay
human alpha2-Antiplasmin [3] = biological target: T1, human alpha2-Antiplasmin; assay: ELISA, coated antigen, 1st exp.; 1st exp.
Description: as §1, with “30 μl/well of this diluted detection antibody was added and plates are incubated for 1 hour at room temperature. Following this incubation step, plates were washed for 3× using 50 μl/well of a PBS+0.05% Tween 20 buffer. As substrate, a mixture of 30 μl/well of 1:1000 diluted Amplex red (Invitrogen; catalogue number 12222; stock solution 10 mM in DMSO) and 1:10.000 of Hydrogen peroxide (Merck; catalogue number 107209; 30% stock solution) was added and the plates incubated for minutes in the dark.” left out
(§4) For measurement, the Infinite f500 reader (Tecan) was used. Measurement mode: Fluorescence; Top reading; Ex 535 nm; Em 590 nm. […]

human alpha2-Antiplasmin [4] = biological target: T1, human alpha2-Antiplasmin; assay: ELISA, coated antigen, 3rd exp.
Description: as §1, §2, §3

human Plasmin = human Plasmin (human, UniProt P00747 97-580; P00747 581-810, limits assumed); assay: cell-based or functional assay
human alpha2-Antiplasmin [5] = biological target: T1, human alpha2-Antiplasmin; assay: cell-based or functional assay; remark: listed apart in the source
human alpha2-Antiplasmin [6] = biological target: T1, human alpha2-Antiplasmin; assay: ELISA, coated antigen, 1st exp.
Description: as §1, §2, §3

human alpha2-Antiplasmin [7] = biological target: T1, human alpha2-Antiplasmin; assay: ELISA, coated antigen, 3rd exp.; 3rd exp.
Description: as §1, with “30 μl/well of this diluted detection antibody was added and plates are incubated for 1 hour at room temperature. Following this incubation step, plates were washed for 3× using 50 μl/well of a PBS+0.05% Tween 20 buffer. As substrate, a mixture of 30 μl/well of 1:1000 diluted Amplex red (Invitrogen; catalogue number 12222; stock solution 10 mM in DMSO) and 1:10.000 of Hydrogen peroxide (Merck; catalogue number 107209; 30% stock solution) was added and the plates incubated for minutes in the dark.” left out
as §4

human alpha2-Antiplasmin [8] = biological target: T1, human alpha2-Antiplasmin; assay: cell-based or functional assay; remark: listed apart in the source

Chain of human Plasmin (P00747 97-580 limits assumed, chain 1 of 2): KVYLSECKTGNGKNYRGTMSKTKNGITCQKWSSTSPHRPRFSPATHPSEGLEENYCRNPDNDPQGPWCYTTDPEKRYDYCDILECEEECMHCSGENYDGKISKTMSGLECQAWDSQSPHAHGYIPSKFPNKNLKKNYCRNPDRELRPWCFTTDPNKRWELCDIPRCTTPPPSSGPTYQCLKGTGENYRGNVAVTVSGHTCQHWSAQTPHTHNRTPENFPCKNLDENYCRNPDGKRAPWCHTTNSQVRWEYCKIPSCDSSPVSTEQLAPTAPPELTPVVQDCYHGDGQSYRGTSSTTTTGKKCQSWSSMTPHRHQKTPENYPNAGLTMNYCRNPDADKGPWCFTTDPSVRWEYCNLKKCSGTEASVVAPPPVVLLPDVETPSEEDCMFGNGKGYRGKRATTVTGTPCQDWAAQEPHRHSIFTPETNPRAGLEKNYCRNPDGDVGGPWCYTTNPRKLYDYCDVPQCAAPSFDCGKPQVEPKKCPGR
Chain of human Plasmin (P00747 581-810 limits assumed, chain 2 of 2): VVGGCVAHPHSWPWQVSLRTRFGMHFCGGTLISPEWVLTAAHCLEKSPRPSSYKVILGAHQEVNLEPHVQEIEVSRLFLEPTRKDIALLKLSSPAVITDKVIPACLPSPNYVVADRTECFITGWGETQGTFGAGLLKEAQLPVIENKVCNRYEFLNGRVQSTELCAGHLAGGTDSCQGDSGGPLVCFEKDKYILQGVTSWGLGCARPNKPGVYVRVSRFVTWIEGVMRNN

EC50 (human alpha2-Antiplasmin [1])	EC50 (read off the curve); function blocking assay (Example 4), RFU of plasmin substrate cleavage (human alpha2-Antiplasmin [2])	EC50 (human alpha2-Antiplasmin [3])	EC50 (human alpha2-Antiplasmin [4])	IC50 [M], inhibition of plasmin proteolytic activity (human Plasmin)	function blocking activity [IC50 M], 1st exp. (human alpha2-Antiplasmin [5])	function blocking activity [IC50 M], 2nd exp. (human alpha2-Antiplasmin [5])	function blocking activity [IC50 M], 3rd exp. (human alpha2-Antiplasmin [5])	EC50 (human alpha2-Antiplasmin [6])	EC50 (human alpha2-Antiplasmin [7])	EC50 (read off the curve); function blocking assay (Example 4), RFU of plasmin substrate cleavage (human alpha2-Antiplasmin [8])	Binder
62 nM	~30 nM	5.7 nM	58 nM	> 5e-06 M	31 nM	37 nM	40 nM				TPP-14298 hIgG1 (antibody, V domains shown) VH: EVQLLESGGGLVQPGGSLRLSCAASGFTFDDYAMSWVRQAPGKGLEWVSAIGTGGGTYYADSVKGRFTISRDNSKNTLYLQMNSLRAEDTAVYYCASEYYDSSGYYHLDYWGQGTLVTVSS VL: QSVLTQPPSASGTPGQRVTISCTGSSSNIGATYDVHWYQQLPGTAPKLLIYSNNQRPSGVPDRFSGSKSGTSASLAISGLRSEDEADYYCAAWDWSLSGWVFGGGTKLTVLG
29 nM				> 1e-05 M	85 nM	89 nM	94 nM	24 nM	27 nM	~80 nM	TPP-14303 hIgG1 (antibody, V domains shown) VH: EVQLLESGGGLVQPGGSLRLSCAASGFTFDDYAMSWVRQAPGKGLEWVSAIGTGGGTYYADSVKGRFTISRDNSKNTLYLQMNSLRAEDTAVYYCAREDYDSSGYYHLDYWGQGTLVTVSS VL: QSVLTQPPSASGTPGQRVTISCTGSSSNIGATYDVHWYQQLPGTAPKLLIYSNNQRPSGVPDRFSGSKSGTSASLAISGLRSEDEADYYCAAWDWSLSGWVFGGGTKLTVLG
